# Patent US7772181B2, “Personal care compositions comprising modified variant Bowman Birk Protease Inhibitors” (Danisco US Inc., priority 2008, dated 2010)
# Marks after values point to notes of the source that are not given here.
# Molecular target: T1, bovine pancreatic trypsin (Bos taurus, UniProt P00760)
# T1 construct: purchased Worthington (Worthington Biochemical Corp.)
# T1 sequence (P00760 24-246): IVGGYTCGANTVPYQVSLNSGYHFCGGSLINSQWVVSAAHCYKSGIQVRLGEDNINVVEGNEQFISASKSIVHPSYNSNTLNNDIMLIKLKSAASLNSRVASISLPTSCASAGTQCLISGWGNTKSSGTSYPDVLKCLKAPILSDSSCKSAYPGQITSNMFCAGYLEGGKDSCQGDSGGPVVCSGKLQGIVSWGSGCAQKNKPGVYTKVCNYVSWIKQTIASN
# Test: BBIt-AV:BCE activity ratio, microtiter plate screens (primary, quadruplicate secondary)
# Type: biochemical
# Details: after activation with reducing agent (2-mercaptoethanol)
# Procedure: The cultures in each master plate were thawed and a pin replicator was used to inoculate a new sterile microtiter plate containing 150 μl of Luria broth with 5 μg/ml chloramphenicol in each well. The plates were grown for ˜10 hrs in a humidified and aerated box as described above. For controls, the cultures in two wells were replaced with BBI and BBI-AV cultures that had been grown concurrently in 15 ml culture tubes (5 ml of Luria broth with 5 μg/ml chloramphenicol). After the cultures were grown, the plate was used to inoculate two duplicate 96-well filter plates (Millipore, MSGV2210) containing 150 μl of MBD medium (Vogtentanz et al., 2007) with 5 μg/ml chloramphenicol in each well by using a pin replicator. The duplicate plates were grown for ˜14 hours (as above, with plastic spacers placed between the stacked plates to allow for efficient air flow around the plates) and then 2-mecaptoethanol was added to each well in one of the plates to a final concentration of 2 mM. The plates were then grown for an additional ˜46 hours. The 96-well filter plates containing the culture broth (with or without added 2-mecaptoethanol) were then assayed for BBI and BCE activity.
# Libraries were analyzed using dilutions of cultures grown in 96-well plates. Typically, the culture broth from each well was diluted (200 fold) in Assay Buffer (100 mM Tris pH 8.6, 0.005% Tween 80) and transferred to a second microtiter plate (CoStar 9017, Corning, Inc., Corning, N.Y.). Then, 20 μl of the diluted samples were transferred to a third microtiter plate. A standard curve was created by adding 20, 10, 5 or 2.5 μl of the diluted sBBI (SEQ ID NO:13) control culture to empty wells. Then, 80 μL of 50 ng/ml trypsin (bovine pancreatic trypsin, Worthington Biochemical Corp., Lakewood, N.J.) (prepared from a 1 mg/mL stock solution diluted into Assay Buffer) was added to each well of the plate. The reactions were mixed and incubated 15 min at room temperature. After the incubation, 100 μL of 0.5 mg/ml trypsin substrate (succinyl-Ala-Ala-Pro-Arg-para-nitroanilide, Bachem Bioscience, Inc., King of Prussia, Pa.), diluted in Assay Buffer from a 100 mg/ml solution in DMSO, was added to each well, mixed, and the absorbance at 405 nm was monitored for 15 min, with 1 time point recorded every 12 sec using a Spectra Max 250 (Molecular Devices). The data points were used to determine the rate for each reaction. The standard curve was generated by plotting the reaction rate versus the BBI volume and was fitted to a four-parameter equation. All data fitting was done using software supplied by the manufacturer (Molecular Devices Corp., Sunnyvale, Calif.). The activity of each BBIt-AV variant was calculated from the standard curve. Thus, the activities of all modified variant proteins were determined relative to the activity in the sBBI control (BBI-WT) culture.
# The concentration of BCE was determined by an activity assay using purified BCE as a standard as described above and by (Vogtentanz et al. 2007). For the analysis of libraries grown in 96-well microtiter plates, 20 μl of culture broth were transferred to each well of a new microtiter plate. A standard curve was created by adding 20, 10, 5 or 2.5 μl of the diluted BBI-WT control culture to these empty wells. Then, 180 μl of the BCE substrate (0.25 μg/ml in Assay Buffer), 4-nitrophenyl β-D-cellobioside (Sigma, St. Louis, Mo.), was added to the plate. The plate was mixed and the absorbance at 405 nm monitored for 15 min, with 1 time point recorded every 12 s using a Spectra Max 250 (Molecular Devices Corp., Sunnyvale, Calif.). The data points were used to determine the rate for each reaction. The standard curve was generated by plotting rate versus culture volume and was fit to a quadratic curve. The BCE concentration in each variant culture was determined relative to the standard control culture. […]
row,Molecule,BBIt-AV:BCE activity ratio relative to unmodified BBIt-AV
1,"BBIt-AV-F50T: BBIt-AV (SEQ ID NO:187) with single substitution F50T (protein, synthetic BBIt-AV sequence) DDESSKPCCDQCACTKSNPPQCRCSDMRLNSCHSACKSCACYNLYGWTCTCVDITDFCYEPCKPSE",three-fold greater
2,"F50R: BBIt-AV (SEQ ID NO:187) with single substitution F50R (protein, synthetic BBIt-AV sequence) DDESSKPCCDQCACTKSNPPQCRCSDMRLNSCHSACKSCACYNLYGWTCRCVDITDFCYEPCKPSE",best BBIt-AV:BCE-activity ratio

# Same assay, conditions: prior to activation
row,Molecule,initial BBIt-AV:BCE activity ratio relative to unmodified BBIt-AV
1,"BBIt-AV-F50T: BBIt-AV (SEQ ID NO:187) with single substitution F50T (protein, synthetic BBIt-AV sequence) DDESSKPCCDQCACTKSNPPQCRCSDMRLNSCHSACKSCACYNLYGWTCTCVDITDFCYEPCKPSE",comparable to that of the unmodified BBIt-AV parent

# Same assay, conditions: single substitution in BBIt-AV, in the presence of reducing agent
Molecule,"relative activity of the amino acid substitution (BBI:BCE activity ratio vs BBIt-AV), amino acid present in BBIsb3-AV","relative activity of the amino acid substitution (BBI:BCE activity ratio vs BBIt-AV), amino acid present in BBIdb-AV","relative activity of the amino acid substitution (BBI:BCE activity ratio vs BBIt-AV), amino acid present in BBItc-AV"
"S25E: BBIt-AV (SEQ ID NO:187) with single substitution S25E (protein, synthetic BBIt-AV sequence) DDESSKPCCDQCACTKSNPPQCRCEDMRLNSCHSACKSCACYNLYGWTCFCVDITDFCYEPCKPSE","E (−−−) (the greater the number of “−”, the greater the difference.)",–,–
"S25T: BBIt-AV (SEQ ID NO:187) with single substitution S25T (protein, synthetic BBIt-AV sequence) DDESSKPCCDQCACTKSNPPQCRCTDMRLNSCHSACKSCACYNLYGWTCFCVDITDFCYEPCKPSE",–,T (+/−),–
"A13M: BBIt-AV (SEQ ID NO:187) with single substitution A13M (protein, synthetic BBIt-AV sequence) DDESSKPCCDQCMCTKSNPPQCRCSDMRLNSCHSACKSCACYNLYGWTCFCVDITDFCYEPCKPSE",M (+)***,–,–
"N18M: BBIt-AV (SEQ ID NO:187) with single substitution N18M (protein, synthetic BBIt-AV sequence) DDESSKPCCDQCACTKSMPPQCRCSDMRLNSCHSACKSCACYNLYGWTCFCVDITDFCYEPCKPSE",M (+/−),–,–
"K37E: BBIt-AV (SEQ ID NO:187) with single substitution K37E (protein, synthetic BBIt-AV sequence) DDESSKPCCDQCACTKSNPPQCRCSDMRLNSCHSACESCACYNLYGWTCFCVDITDFCYEPCKPSE",–,–,E (+/−)
"N18I: BBIt-AV (SEQ ID NO:187) with single substitution N18I (protein, synthetic BBIt-AV sequence) DDESSKPCCDQCACTKSIPPQCRCSDMRLNSCHSACKSCACYNLYGWTCFCVDITDFCYEPCKPSE",–,"I (+++) (the greater the number of “+”, the greater the difference.)","I (+++) (the greater the number of “+”, the greater the difference.)"
"R23H: BBIt-AV (SEQ ID NO:187) with single substitution R23H (protein, synthetic BBIt-AV sequence) DDESSKPCCDQCACTKSNPPQCHCSDMRLNSCHSACKSCACYNLYGWTCFCVDITDFCYEPCKPSE",–,–,H (−)
"S25A: BBIt-AV (SEQ ID NO:187) with single substitution S25A (protein, synthetic BBIt-AV sequence) DDESSKPCCDQCACTKSNPPQCRCADMRLNSCHSACKSCACYNLYGWTCFCVDITDFCYEPCKPSE",–,–,A (+)
"R23S: BBIt-AV (SEQ ID NO:187) with single substitution R23S (protein, synthetic BBIt-AV sequence) DDESSKPCCDQCACTKSNPPQCSCSDMRLNSCHSACKSCACYNLYGWTCFCVDITDFCYEPCKPSE","S (−−−) (the greater the number of “−”, the greater the difference.)",–,–
"M27V: BBIt-AV (SEQ ID NO:187) with single substitution M27V (protein, synthetic BBIt-AV sequence) DDESSKPCCDQCACTKSNPPQCRCSDVRLNSCHSACKSCACYNLYGWTCFCVDITDFCYEPCKPSE",–,V (+/−),–
"Q11L: BBIt-AV (SEQ ID NO:187) with single substitution Q11L (protein, synthetic BBIt-AV sequence) DDESSKPCCDLCACTKSNPPQCRCSDMRLNSCHSACKSCACYNLYGWTCFCVDITDFCYEPCKPSE",L (+/−)**,–,–
"M27I: BBIt-AV (SEQ ID NO:187) with single substitution M27I (protein, synthetic BBIt-AV sequence) DDESSKPCCDQCACTKSNPPQCRCSDIRLNSCHSACKSCACYNLYGWTCFCVDITDFCYEPCKPSE",I (+/−),–,I (+/−)
"A35D: BBIt-AV (SEQ ID NO:187) with single substitution A35D (protein, synthetic BBIt-AV sequence) DDESSKPCCDQCACTKSNPPQCRCSDMRLNSCHSDCKSCACYNLYGWTCFCVDITDFCYEPCKPSE",D (+/−),–,–
"Q11R: BBIt-AV (SEQ ID NO:187) with single substitution Q11R (protein, synthetic BBIt-AV sequence) DDESSKPCCDRCACTKSNPPQCRCSDMRLNSCHSACKSCACYNLYGWTCFCVDITDFCYEPCKPSE",–,–,R (+/−)
"F50R: BBIt-AV (SEQ ID NO:187) with single substitution F50R (protein, synthetic BBIt-AV sequence) DDESSKPCCDQCACTKSNPPQCRCSDMRLNSCHSACKSCACYNLYGWTCRCVDITDFCYEPCKPSE","R (++) (the greater the number of “+”, the greater the difference.)",–,"R (++) (the greater the number of “+”, the greater the difference.)"
